{"source": "patent US20230313187A1", "about": "“MODIFICATIONS OF MAMMALIAN CELLS USING ARTIFICIAL MICRO-RNA TO ALTER THEIR PROPERTIES AND THE COMPOSITIONS OF THEIR PRODUCTS” (DNA TWOPOINTO INC., priority 2020, published 2023)", "key": {"[1]": {"test_system": "Homo sapiens alpha-(1,6)-fucosyl transferase (FUT8) mRNA", "assay": "Inhibition of antibody fucosylation in HEK cell pools, amiRNA directed toward FUT8", "assay_type": "cell-based", "description": "Two different multi-hairpin amiRNA sequences were designed to target genes involved in the fucosylation pathway in human cells: alpha-(1,6)-fucosyl transferase (FUT8), GDP-Mannose 4,6-dehydratase (GMD), and GDP-fucose transporter 1 (GFT). One Multi-hairpin amiRNA, with nucleotide sequence SEQ ID NO: 202 comprised three hairpins; the first hairpin comprised guide strand sequence SEQ ID NO: 29, immediately followed by loop sequence SEQ ID NO: 241 and passenger strand sequence SEQ ID NO: 114, the second hairpin comprised guide strand sequence SEQ ID NO: 30, immediately followed by loop sequence SEQ ID NO: 241 and passenger strand sequence SEQ ID NO: 115, the third hairpin comprised guide strand sequence SEQ ID NO: 31, immediately followed by loop sequence SEQ ID NO: 241 and passenger strand sequence SEQ ID NO: 116. Each of these three guide strand sequences was a 22 base sequence that was an exact reverse complement of a different region within the Homo sapiens alpha-(1,6)-fucosyl transferase (FUT8) mRNA. Each passenger strand sequence was complementary to its corresponding guide strand sequence, except that the bases in the passenger strand sequences corresponding to the 5′ base of the guide strand and the twelfth base of the guide strand were changed to be non-complementary. The first and twelfth bases of guide strand with SEQ ID NO: 29 are T and T respectively, the corresponding bases in the corresponding passenger strand sequence SEQ ID NO: 114 are C and C respectively. The first and twelfth bases of guide strand with SEQ ID NO: 30 are T and T respectively, the corresponding bases in the corresponding passenger strand sequence SEQ ID NO: 115 are C and C respectively. The first and twelfth bases of guide strand with SEQ ID NO: 31 are T and A respectively, the corresponding bases in the corresponding passenger strand sequence SEQ ID NO: 116 are C and C respectively. Each hairpin in multi-hairpin amiRNA nucleotide sequence SEQ ID NO: 202 further comprised additional stem-stabilizing sequences, with stem sequence SEQ ID NO: 255 immediately preceding the guide strand sequence, and stem sequence SEQ ID NO: 256 immediately following the passenger strand sequence. Multi-hairpin amiRNA nucleotide sequence SEQ ID NO: 202 further comprised an unstructured sequence with SEQ ID NO: 251 to the 5′ of the first hairpin, and an unstructured sequence with SEQ ID NO: 253 to the 3′ of the third hairpin. […]\nThe multi-hairpin amiRNA sequences were placed to the 3′ of an open reading frame encoding a red fluorescent protein (with nucleotide sequence SEQ ID NO: 279) and followed by a rabbit globin polyadenylation sequence. […]"}, "[2]": {"test_system": "Cricetulus griseus interferon receptor subunit 1 mRNA and subunit 2 mRNA", "assay": "Expression of human interferon beta from CHO cells (ELISA), amiRNA to both interferon receptor subunits", "assay_type": "cell-based", "conditions": "for Average Titer: average of duplicate cultures; for interferon beta expression compared with the control transposon: control transposon expressed 48 μg/ml; for Titer: 10-day fed batch", "description": "One multi-hairpin amiRNA, with nucleotide sequence SEQ ID NO: 600, comprised five hairpins; the first hairpin comprised a guide strand with nucleotide sequence SEQ ID NO: 103, immediately followed by a loop with nucleotide sequence SEQ ID NO: 241 and passenger strand with nucleotide sequence SEQ ID NO: 188; the second hairpin comprised a guide strand with nucleotide sequence SEQ ID NO: 95, immediately followed by a loop with nucleotide sequence SEQ ID NO: 241 and passenger strand with nucleotide sequence SEQ ID NO: 180; the third hairpin comprised a guide strand with nucleotide sequence SEQ ID NO: 104, immediately followed by a loop with nucleotide sequence SEQ ID NO: 241 and a passenger strand with nucleotide sequence SEQ ID NO: 189; the fourth hairpin comprised a guide strand with nucleotide sequence SEQ ID NO: 97, immediately followed by a loop with nucleotide sequence SEQ ID NO: 241 and a passenger strand with nucleotide sequence SEQ ID NO: 182; the fifth hairpin comprised a guide strand with nucleotide sequence SEQ ID NO: 102, immediately followed by a loop with nucleotide sequence SEQ ID NO: 241 and a passenger strand with nucleotide sequence SEQ ID NO: 187. Two of these five guide strand sequences were a 22 base sequence that was an exact reverse complement of a different region within the Cricetulus griseus interferon receptor subunit 1 mRNA (with nucleotide sequence SEQ ID NO: 19); three of these five guide strand sequences were a 22 base sequence that was an exact reverse complement of a different region within the Cricetulus griseus interferon receptor subunit 2 mRNA (with nucleotide sequence SEQ ID NO: 20). Each passenger strand sequence was complementary to its corresponding guide strand sequence, except that the bases in the passenger strand sequences corresponding to the 5′ base of the guide strand and the twelfth base of the guide strand were changed to be non-complementary.\nOne multi-hairpin amiRNA, with nucleotide sequence SEQ ID NO: 601, comprised four hairpins; the first hairpin comprised a guide strand with nucleotide sequence SEQ ID NO: 101, immediately followed by a loop with nucleotide sequence SEQ ID NO: 241 and passenger strand with nucleotide sequence SEQ ID NO: 186; the second hairpin comprised a guide strand with nucleotide sequence SEQ ID NO: 99, immediately followed by a loop with nucleotide sequence SEQ ID NO: 241 and passenger strand with nucleotide sequence SEQ ID NO: 184; the third hairpin comprised a guide strand with nucleotide sequence SEQ ID NO: 102, immediately followed by a loop with nucleotide sequence SEQ ID NO: 241 and a passenger strand with nucleotide sequence SEQ ID NO: 187; the fourth hairpin comprised a guide strand with nucleotide sequence SEQ ID NO: 106, immediately followed by a loop with nucleotide sequence SEQ ID NO: 241 and a passenger strand with nucleotide sequence SEQ ID NO: 191. Two of these four guide strand sequences were a 22 base sequence that was an exact reverse complement of a different region within the Cricetulus griseus interferon receptor subunit 1 mRNA (with nucleotide sequence SEQ ID NO: 19); two of these four guide strand sequences were a 22 base sequence that was an exact reverse complement of a different region within the Cricetulus griseus interferon receptor subunit 2 mRNA (with nucleotide sequence SEQ ID NO: 20). Each passenger strand sequence was complementary to its corresponding guide strand sequence, except that the bases in the passenger strand sequences corresponding to the 5′ base of the guide strand and the twelfth base of the guide strand were changed to be non-complementary. […]"}, "[3]": {"conditions": "interferon beta in supernatant, first of duplicate cultures"}, "[4]": {"conditions": "interferon beta, second of duplicate cultures"}}, "note": "Where “and” joins values, the source holds several entries; their conditions need not be identical. Equal entries are not always repeated."}
{"molecule": "SEQ ID NO: 202: three-hairpin amiRNA, guides SEQ ID NOs 29, 30, 31 complementary to Homo sapiens FUT8 mRNA (nucleic acid) ATCTGATCTTCTGAAGAAAATATATTTCTTTTTATTCATAGCTCTTAACTAGTGGTGATAGCAATGTCAGCAGTGCCTTTGGTCGTTTATCTCTTCCATCGTGAAGCCACAGATGGATGGAAGAGCTAAACGACCACAAGTAAGGTTGACCATACTCTACTCTAGAGTTGTGTTTTAATGTATATTAATGTTACTAATGTGTTTACTAGTGGTGATAGCAATGTCAGCAGTGCCTTTCATCTACAGTTTGGCTGAAAGTGAAGCCACAGATGTTTCAGCCAACCTGTAGATGACAAGTAAGGTTGACCATACTCTACTCTAGGTTATTTTTAGTATGATTCTGTAAAAATGAATTAATACTAACTAGTGGTGATAGCAATGTCAGCAGTGCCTTTAAATTACACAATATGGCAGTGTGAAGCCACAGATGACTGCCATATCGTGTAATTTACAAGTAAGGTTGACCATACTCTACTCTAGTCAGTTTTATTGATAGTCTTTTCAGTATTATTGATAATCTT", "values": [{"measurement": "G0 + G1 % (area)", "setting": "[1]; afucosylated antibody, HEK pool, 7-day transient culture, listed as 202", "value": "90 % (area) and 89 % (area)"}, {"measurement": "Titer", "setting": "[1]; antibody in culture supernatant, HEK pool, 7-day culture, listed as 202", "value": "353 mg/L and 316 mg/L"}, {"measurement": "reduction of antibody fucosylation", "setting": "[1]; both replicates of HEK cell pools (Table 3 rows 3 and 4)", "value": "approximately 90%"}, {"measurement": "G0F + G1F (% area)", "setting": "[1]; fucosylated antibody, HEK pool, 7-day transient culture, listed as 202", "value": "10 % area and 11 % area"}]}
{"molecule": "SEQ ID NO: 600: five-hairpin amiRNA, two guides to interferon receptor subunit 1 mRNA and three to subunit 2 mRNA (nucleic acid) ATCTGATCTTCTGAAGAAAATATATTTCTTTTTATTCATAGCTCTTAACTAGTGGTGATAGCAATGTCAGCAGTGCCTAAGACTATCAGCAAGAACCAGGGTGAAGCCACAGATGCCTGGTTCTTACTGATAGTCTCAAGTAAGGTTGACCATACTCTACTCTAGTTATATTCTTTAGGCACGAATGTGTGTTTAAAAAAAATAAAAACTAGTGGTGATAGCAATGTCAGCAGTGCCTTAAAATAACACACAAGAGCCATGTGAAGCCACAGATGATGGCTCTTGCGTGTTATTTTCAAGTAAGGTTGACCATACTCTACTCTAGAGTTGTGTTTTAATGTATATTAATGTTACTAATGTGTTTACTAGTGGTGATAGCAATGTCAGCAGTGCCTTTGAAGATAACTTTGTCCCCGGGTGAAGCCACAGATGCCGGGGACAACGTTATCTTCACAAGTAAGGTTGACCATACTCTACTCTAGGTTATTTTTAGTATGATTCTGTAAAAATGAATTAATACTAACTAGTGGTGATAGCAATGTCAGCAGTGCCTTTAAACAGTAAGTAGTCTCTGGGTGAAGCCACAGATGCCAGAGACTAATTACTGTTTACAAGTAAGGTTGACCATACTCTACTCTAGATTTTTCAGATGTATCATCTCTTAAAATACTGTAATTGCAACTAGTGGTGATAGCAATGTCAGCAGTGCCTTAAACAACAATGGATCCCCAAAGTGAAGCCACAGATGTTTGGGGATCAATTGTTGTTTCAAGTAAGGTTGACCATACTCTACTCTAGTCAGTTTTATTGATAGTCTTTTCAGTATTATTGATAATCTT", "values": [{"measurement": "Average Titer", "setting": "[2]", "value": 79.8, "unit": "µg/mL"}, {"measurement": "interferon beta expression compared with the control transposon", "setting": "[2]", "value": "as much as twice the expression levels of interferon beta as the control transposon"}, {"measurement": "Titer", "setting": "[2]; [3]", "value": 80.3, "unit": "µg/mL"}, {"measurement": "Titer", "setting": "[2]; [4]", "value": 79.2, "unit": "µg/mL"}]}
{"molecule": "SEQ ID NO: 601: four-hairpin amiRNA, two guides to interferon receptor subunit 1 mRNA and two to subunit 2 mRNA (nucleic acid) ATCTGATCTTCTGAAGAAAATATATTTCTTTTTATTCATAGCTCTTAACTAGTGGTGATAGCAATGTCAGCAGTGCCTTAGTGTAGACAACAGTACCTCTGTGAAGCCACAGATGAGAGGTACTATTGTCTACACTCAAGTAAGGTTGACCATACTCTACTCTAGTTATATTCTTTAGGCACGAATGTGTGTTTAAAAAAAATAAAAACTAGTGGTGATAGCAATGTCAGCAGTGCCTTTCCACGTCTGTCTTGTCCTACGTGAAGCCACAGATGGTAGGACAAGCCAGACGTGGACAAGTAAGGTTGACCATACTCTACTCTAGAGTTGTGTTTTAATGTATATTAATGTTACTAATGTGTTTACTAGTGGTGATAGCAATGTCAGCAGTGCCTTAAACAACAATGGATCCCCAAAGTGAAGCCACAGATGTTTGGGGATCAATTGTTGTTTCAAGTAAGGTTGACCATACTCTACTCTAGGTTATTTTTAGTATGATTCTGTAAAAATGAATTAATACTAACTAGTGGTGATAGCAATGTCAGCAGTGCCTTAACACAGTACCGCCTTAGTGCGTGAAGCCACAGATGGCACTAAGGCAGTACTGTGTTCAAGTAAGGTTGACCATACTCTACTCTAGTCAGTTTTATTGATAGTCTTTTCAGTATTATTGATAATCTT", "values": [{"measurement": "Average Titer", "setting": "[2]", "value": 88.0, "unit": "µg/mL"}, {"measurement": "interferon beta expression compared with the control transposon", "setting": "[2]", "value": "as much as twice the expression levels of interferon beta as the control transposon"}, {"measurement": "Titer", "setting": "[2]; [3]", "value": 97.3, "unit": "µg/mL"}, {"measurement": "Titer", "setting": "[2]; [4]", "value": 78.6, "unit": "µg/mL"}]}
